Test results: publication PMC11112747, “Cyanovirin-N Binding to N-Acetyl-D-glucosamine Requires Carbohydrate-Binding Sites on Two Different Protomers” (Biochemistry, 2024)
“And” between values parts separate entries of the source, which are not always exact repeats. Equal entries are not always repeated. Where two headings read alike, the source gives them in different places.

Assays:
CVN2 (CVN2L0) [1] = target: T1, CVN2 (CVN2L0) (Nostoc ellipsosporum, UniProt P81180); experiment: Isothermal titration calorimetry, protein titrated into GlcNAc in the cell, PBS pH 7.4, 298 K, one-set of sites model.; assay type: binding; settings: SEM, n = 3; read-out: affinity Kd
T1 construct: tandem-linked domain-swapped dimer of two CV-N, zero-linker length; His-tag
T1 sequence (P81180 1-101): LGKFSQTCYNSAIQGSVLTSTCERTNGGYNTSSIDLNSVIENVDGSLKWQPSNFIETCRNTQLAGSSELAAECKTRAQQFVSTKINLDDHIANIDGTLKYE
Procedure: (§1) Calorimetric titrations were carried out using an ITC200 device (Malvern Panalytical, Malvern, UK). The concentration of mutant E41T dimer and monomeric variants CVN-E41T or CVN-E41A was 200 μM titrant of these proteins to the ligands ManNAc and GlcNAc in the cell. […] The protein concentrations were 44 μM (304 μM) CVN2L0 and 465 μM CVN-E41T in the ManNAc experiments, respectively, and determined to be between 200 and 300 μM for the GlcNAc experiment. Aliquots (2 μL) of CV-N titrant were injected at 2 min intervals into the sugar solution in the calorimetry cell with a total of 19 injections from a stirring syringe (operated at 750 rpm). Controls were prepared with identical amounts of titrant injected into PBS buffer at pH 7.4 at 298 K, and control values were subtracted from the results of the actual experiments. The values for enthalpy, binding affinity, and stoichiometry from the binding curve and the free energy and entropy of interaction were calculated using Microcal Origin v7.0 (OriginLab, Northampton, Massachusetts, USA) according to the standard expressions: ΔG = −RTln Ka, and ΔG = ΔH–TΔS.
(§2) Figure 2 ITC data showing the binding of CVN2, mutant E41T dimer, and CVN-E41A to GlcNAc. (A) Schematic representation of monomeric CVN-E41A and dimeric CVN2 binding to GlcNAc. (B) Binding affinity of CVN2 to GlcNAc. Thermogram is shown, and the binding curve fitted to the one-set of sites model. (C) Mutant E41T dimer binds to GlcNAc. Thermogram is shown, and binding analyzed based on one-set of sites binding model. T = 298 K. Ligand in cell. […] Thermogram is shown, and binding analyzed based on one-set of sites binding model. […]
(§3) The lectin interaction with peptide residues was enhanced or reduced by replacing a single, or two, disulfide bond(s) by ionic residue pairs (Glu and Arg) at positions E58 and R73 in CVN2, resulting in binding of dimannosylated peptide (DM) by double-mutant C58E-C73R (CVN2L0-V5) (Figure S2C) with high polar interactions.[12] […] The binding stoichiometry was calculated from a simplex fit. […]

mutant E41T dimer [2] = target: T2, mutant E41T dimer (Nostoc ellipsosporum, UniProt P81180, E41T); experiment: as above; assay type: binding; settings: SEM, n = 3; read-out: affinity Kd
T2 construct: His-tag
Procedure: as §1, §2, §3

CVN-E41A = target: T3, CVN-E41A (Nostoc ellipsosporum, UniProt P81180, E41A); experiment: as above; assay type: binding; settings: SEM, n = 3; read-out: affinity Kd
T3 construct: monomeric variant; His-tag
Procedure: as §1, §2, §3

CVN-E41T = target: T4, CVN-E41T (Nostoc ellipsosporum, UniProt P81180, E41T); experiment: Isothermal titration calorimetry, monomeric CVN-E41T titrated into 6 uM GlcNAc in the cell, PBS pH 7.4, 298 K, one-set of sites model, single biological replicates.; assay type: binding; settings: n = 1; read-out: Affinity Kd
T4 construct: His-tag
Procedure: as §1, with “Controls were prepared with identical amounts of titrant injected into PBS buffer at pH 7.4 at 298 K, and control values were subtracted from the results of the actual experiments.” left out
as §3

mutant E41T dimer [3] = target: T2, mutant E41T dimer; experiment: Isothermal titration calorimetry, mutant E41T dimer with ManNAc in the cell, PBS pH 7.4, 298 K, calculated with N = 2.; assay type: binding
Procedure: as §1, with “Controls were prepared with identical amounts of titrant injected into PBS buffer at pH 7.4 at 298 K, and control values were subtracted from the results of the actual experiments.” left out
In comparison, CV-N binding to GlcNAc, the N-linked glycan unit in N-glycosylation sites that is also part of bacterial cell walls with beta-linked bonds to N-acetylmuramic acid (MurNAc), was rather unspecific and measured in the micromolar range (Figure S1B).
Figure S1. […] Calculated energies of interaction, affinities, and stoichiometry for CV-N binding and […]
model. (F) Mutant E41T dimer binding to ManNAc is calculated based on N=2, ligand in the cell analysis. […]

CVN2 (CVN2L0) [4] = target: T1, CVN2 (CVN2L0); experiment: Isothermal titration calorimetry, CVN2 titrated into ManNAc in the cell, PBS pH 7.4, 298 K, one-set of sites model.; assay type: binding; settings: SEM, n = 3; read-out: affinity Kd
Procedure: as §1, with “Controls were prepared with identical amounts of titrant injected into PBS buffer at pH 7.4 at 298 K, and control values were subtracted from the results of the actual experiments.” left out, “ΔH–TΔS. […]” for “ΔH–TΔS.”
Specific carbohydrate–protein interactions with polar and charged residues were delineated from the solution structure with Manα1 → 2Man disaccharide bound to domain B.[5] […] A low-affinity binding site was exposed and calculated to bind ManNAc with micromolar concentrations of CV-N and CVN2 (Figure S1A and Figure 1B). […]

[5] = STD-NMR interaction with GlcNAc; assay type: binding; settings: protein 100 μM, carbohydrate/CV-N = 10:1, T = 298 K
Procedure: (§4) NMR experiments were performed using a Bruker 600 MHz spectrometer, and STD spectra were obtained with −0.05 ppm as irradiation frequency and 2.94 s of saturation time. An NMR sample of CV-N, its mutant, and dimer were prepared in 100 mM PBS, pH 7.0, each added to the carbohydrate solutions in phosphate buffer for a final protein concentration of 100 μM and a ratio of carbohydrate/CV-N = 10:1.

[6] = STD-NMR interaction with ManNAc; assay type: binding; settings: protein 100 μM, carbohydrate/CV-N = 10:1, T = 298 K
Procedure: as §4

[7] = cited from earlier work
[8] = ITC binding of CV-N, CVN2 and variants to ManNAc; settings: for Kd: two-sets of sites model
Procedure: as §1

[9] = ITC binding of CVN2 to dimannosylated peptide (DM); settings: one-set of sites model, T=298K, Figure S2D

## CC(=O)N[C@H]1C(O)O[C@H](CO)[C@@H](O)[C@@H]1O (stereo partly drawn) [GlcNAc, N-acetyl-D-glucosamine]
CVN2 (CVN2L0) [1]
  Kd: 852 ± 235 nM
Mutant E41T dimer [2]
  Kd: 5890 ± 320 nM
CVN-E41A
  Kd: 2500 ± 2000 nM
CVN-E41T
  Kd: 728 nM and 397 nM and 418 nM

## CC(=O)N[C@@H]1C(O)O[C@H](CO)[C@@H](O)[C@@H]1O (stereo partly drawn) [ManNAc, N-acetylmannosamine]
Mutant E41T dimer [3]
  Kd: 110000 nM
CVN2 (CVN2L0) [4]
  Kd: 1400 ± 139 nM

B1: Cyanovirin-N (protein, UniProt P81180 1-101, looked up)
Cyanovirin-N: LGKFSQTCYNSAIQGSVLTSTCERTNGGYNTSSIDLNSVIENVDGSLKWQPSNFIETCRNTQLAGSSELAAECKTRAQQFVSTKINLDDHIANIDGTLKYE
[5]
  STD-NMR interaction with GlcNAc: interaction
[6]
  STD-NMR interaction with ManNAc: hydrogen bonding
[7]; deeper high-affinity binding pocket, read-out: equilibrium Kd
  Kd: ~140 nM
[7]; domain A (low-affinity site), read-out: Kd
  Kd: 1500 nM

B2: CVN2: tandem-linked dimeric CVN2 with zero-linker length; tandem repeat of two CV-N molecules (protein, UniProt P81180 1-101, looked up)
Cyanovirin-N: LGKFSQTCYNSAIQGSVLTSTCERTNGGYNTSSIDLNSVIENVDGSLKWQPSNFIETCRNTQLAGSSELAAECKTRAQQFVSTKINLDDHIANIDGTLKYE
modifications: tandem repeat dimer, zero linker
notes: tandem-linked dimeric CVN2 with zero-linker length; tandem repeat of two CV-N molecules
[8]; site 2, read-out: KD2
  Kd: 2.6 nM
[5]
  STD-NMR interaction with GlcNAc: interaction
[9]
  Kd: 3940 nM

B3: CVN-E41T: CV-N binding-site variant with single-point mutation E41T, generated by alanine to threonine substitution (protein, UniProt P81180 1-101, looked up, variant E41T)
Cyanovirin-N: LGKFSQTCYNSAIQGSVLTSTCERTNGGYNTSSIDLNSVITNVDGSLKWQPSNFIETCRNTQLAGSSELAAECKTRAQQFVSTKINLDDHIANIDGTLKYE
[8]; one-set of sites model, Figure S3A
  binding to ManNAc (ITC): no binding
[8]; site 1, read-out: KD1
  Kd: 712000 nM
[8]; site 2, read-out: KD2
  Kd: 17600 nM
[5]
  STD-NMR interaction with GlcNAc: interaction
[6]
  STD-NMR interaction with ManNAc: hydrogen bonding
